Legend:
Conditions in all cases: protein: recombinant; tags: C-terminal His6 (pETM13); blunt
[1] = target: P150 575-860 (ED + WHD) (Homo sapiens, UniProt Q13111 575-860); assay: EMSA; 2 uM DNA, 0-25 molar ratio; no complex detected; EMSA: 20 mM Tris-HCl, 100 mM NaCl, 1 mM DTT, pH 7.5, 45 min on ice; 6% PAGE in 0.5X TBE on ice
[2] = target: T1, P150 721-860 (WHD) (Homo sapiens, UniProt Q13111 721-860); assay: EMSA; 1 uM DNA, Sybr Gold; fit with Hill slope; EMSA: 20 mM Tris-HCl, 100 mM NaCl, 1 mM DTT, pH 7.5, 45 min on ice; 6% PAGE in 0.5X TBE on ice
T1 sequence (Q13111 721-860): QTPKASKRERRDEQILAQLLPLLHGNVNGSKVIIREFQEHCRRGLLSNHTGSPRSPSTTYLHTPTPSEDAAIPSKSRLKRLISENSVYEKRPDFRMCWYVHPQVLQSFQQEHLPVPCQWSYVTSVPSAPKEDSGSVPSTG

[3] = target: T1, P150 721-860 (WHD); assay: EMSA; about 21 uM DNA; EMSA: 20 mM Tris-HCl, 100 mM NaCl, 1 mM DTT, pH 7.5, 45 min on ice; 6% PAGE in 0.5X TBE on ice
[4] = target: T1, P150 721-860 (WHD); assay: EMSA; 21 uM DNA, 0-15 molar ratio, EtBr; EMSA: 20 mM Tris-HCl, 100 mM NaCl, 1 mM DTT, pH 7.5, 45 min on ice; 6% PAGE in 0.5X TBE on ice

Chain of P150 575-860 (ED + WHD) (Q13111 575-860): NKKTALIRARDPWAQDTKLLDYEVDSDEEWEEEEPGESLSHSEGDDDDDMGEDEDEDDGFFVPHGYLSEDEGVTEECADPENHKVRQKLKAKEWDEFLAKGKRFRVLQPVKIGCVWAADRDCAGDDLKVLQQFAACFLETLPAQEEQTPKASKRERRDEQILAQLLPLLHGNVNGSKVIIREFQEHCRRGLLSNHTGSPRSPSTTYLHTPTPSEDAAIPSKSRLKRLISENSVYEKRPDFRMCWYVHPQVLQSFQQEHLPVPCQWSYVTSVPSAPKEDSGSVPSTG

B1: 58 bp dsDNA (dsDNA)
DNA 1: ATACATTTTATGACTGGAAACTTTTTTGTACAACACTCCAATAAACATTTTGATTTTA
DNA 2: TAAAATCAAAATGTTTATTGGAGTGTTGTACAAAAAAGTTTCCAGTCATAAAATGTAT
binding result [1]: no binding | Kd [2]: 10.4 ± 0.5 µM

B2: 16 bp AT rich dsDNA (dsDNA)
DNA 1: ATAATCGATATTCGTT
DNA 2: AACGAATATCGATTAT
binding result [3]: binds

B3: 16 bp GC rich dsDNA (dsDNA)
DNA 1: ATCGCCCGCGCACGCA
DNA 2: TGCGTGCGCGGGCGAT
binding result [3]: binds

B4: 16 bp dsDNA (dsDNA)
DNA 1: TGCTACCGATCGATAC
DNA 2: GTATCGATCGGTAGCA
binding result [4]: binds
